What was measured:
[1] = biological target: actin (thin filament, F-actin) of mouse left ventricular myocardium (mouse (endogenous in C57/BL6 left ventricle)) (UniProt P68033)
[2] = biological target: actin (thin filament, F-actin) of mouse left ventricular myocardium (mouse (endogenous in C57/BL6 left ventricle)) (UniProt P68033); remark: listed apart in the source
[3] = biological target: actin (thin filament, F-actin) of mouse left ventricular myocardium (mouse (endogenous in C57/BL6 left ventricle)) (UniProt P68033); remark: listed apart in the source
[4] = biological target: actin (thin filament, F-actin) of mouse left ventricular myocardium (mouse (endogenous in C57/BL6 left ventricle)) (UniProt P68033); remark: listed apart in the source
[5] = biological target: actin (thin filament, F-actin) of bovine myocardium (bovine (endogenous in left ventricle and left atrium)) (UniProt Q3ZC07)
[6] = biological target: actin (thin filament, F-actin) of bovine myocardium (bovine (endogenous in left ventricle and left atrium)) (UniProt Q3ZC07); remark: listed apart in the source
[7] = biological target: actin (thin filament, F-actin) of bovine myocardium (bovine (endogenous in left ventricle and left atrium)) (UniProt Q3ZC07); remark: listed apart in the source

Substance: titin (connectin) of mouse left ventricular myocardium, predominately the N2B isoform (natural protein)
- decrease of passive stiffness/tension during stretch of skinned MLV with both S100A1 (1 μg/μL, Sigma) and calcium (pCa 6.8), relative to pCa 9.0; stretch speeds 0.1 and 2.0 length/sec [1]: < 20%
- reduction of titin-based passive tension of skinned MLV after thin filament (actin) extraction with gelsolin, at SL 2.25 μm (calculated from total tension with titin's fractional contribution) [2]: 44%
- reduction of total passive tension during stretch of skinned MLV after thin filament (actin) extraction with gelsolin, at SL 2.25 μm [3]: 22%
- decrease of hysteresis (area of the force-length loop of stretch-release cycles) of skinned MLV after actin extraction with gelsolin, at SL 2.25 μm [4]: 33%

Substance: titin of bovine left atrial myocardium, mainly the N2BA isoform (natural protein)
- reduction of titin-based passive tension of skinned BLA after thin filament (actin) extraction with gelsolin, at SL 2.25 μm (calculated from total tension with titin's fractional contribution) [5]: 12%
- reduction of total passive tension during stretch of skinned BLA after thin filament (actin) extraction with gelsolin, at SL 2.25 μm [6]: 10%
- decrease of hysteresis (area of the force-length loop of stretch-release cycles) of skinned BLA after actin extraction with gelsolin, at SL 2.25 μm [7]: 35%

Substance: titin of bovine left ventricular myocardium, a mixture of the N2B and N2BA isoforms (natural protein)
- reduction of titin-based passive tension of skinned BLV after thin filament (actin) extraction with gelsolin, at SL 2.25 μm (calculated from total tension with titin's fractional contribution) [5]: 20%
- reduction of total passive tension during stretch of skinned BLV after thin filament (actin) extraction with gelsolin, at SL 2.25 μm [6]: 17%
- decrease of hysteresis (area of the force-length loop of stretch-release cycles) of skinned BLV after actin extraction with gelsolin, at SL 2.25 μm [7]: 52%
